Data on 20 sequences can be found in a protein production outcome set (Wang et al. 2014).
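Note: failed if final PepcDB status was selected cloned or expressed and not failed if soluble or beyond.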

A short description of the series: label from the status in PepcDB records.
With “MYGISVFLGEEITNDTIIYIKKMKALGFDGIFTSLHIPEDDTSLYRQRLTDLGAIAKAEKMKIMVDISGEALKRAGFSFDELEPLIELGVTGLRMDYGITIEQMAHASHKIDIGLNASTITLEEVAELKAHQADFSRLEAWHNYYPRPETGIGTTFFNEKNRWLKELGLQVFTFVPGDGQTRGPIFAGLPTLEKHRGQNPFAAAVGLMADPYVDAVYIGDPTISERTMAQFGYYHQTNQFLLEVAPSESRYLKRILGTHTNRLDAARDVLRSELSRTSEMFRKDEIATIESEQTEARPVGTVTIDNEKYGRYMGEIQVTLVDLPKDEKVNTITRIIEKDQTILPLIKAGNQFTLVTEGTIENEFRKLNN”, the protein production result is listed as “not failed”.

Regarding “MYGRKGYQLIKDFATGEKGQLKPFNSKLFDETIEECDQNHHLIQSLIRKMQQEGLDVQNNRNADHYGALIHHLALIRNKRCLMAYVYNRAEIVRDLAWRVGLELLDLPSEIQEKLTTLEKEYFKNHSVALKSYMGKVGIELNVDMVPPKDPYIKVRILDDIDEGIVLSDKTTNFARHSMHFLKRTDAEPYIARGQMEELTG”, the protein production entry is “failed”.

Regarding “MYIEMAQQQQQSGSDNSMAPVWIVILLFITAYFVWALAHQYIVSFVFTINIWQARLVNLFLNNQLLANQIYLMQTLDPNTVNWDQMVTVMRAVGDYMRYPVICILVVLAFVLYNSNVTLKYRKTYDMKSLRAQEQFNWPAIMPIVKEDLVSQDVNKGPWAMALTPMEFARKYNLLRKDDALLDNPVPGEEMTAGIRRGDAKRVFTMQLGPYWDGFERCSPQAYALSAVFMARMNRDRDAANNILKVLDKTFVDGKPDFSVARPVMKKYQNSELVQEVVAKHAYVLTVIASLLEAAREDGVVPSSEFLWLKPVDRRLWYMLNCVGRQTPYSEVAGPFAHWKAEKEMGRRSLVPMIDEAIRALEIAVKEVRLTPRQMEELEP”, the protein production result is “failed”.

As to “MYIQPLNPTGNVGLTILASLTPIIALLILLAGLRITAWLATLIGSIITILVATFVWGTPIIQVSYAWLIGALVGTWAISWIVFWGLTIYNTLVLTGKFDAFRDWIVRNSTNDARVQAIVLAWSLGALFEGLVGFGYPWAFIAPLLIYLGFDDLKALQVSALANNAPVSFGALGTPIIILASVTGLPLLFISSSVAKVVAILALLPPWILLYLVDKWRGIREAWPIAILGSLSYILGQYPVASFIGPYLPDITGSLISFVILLLFLRVWRPKRVLSLRSVQPNGGESKKYSTKDVIEALSAFIVLIIVVTLWTGPWSPLTKFSLVTLSQTAYSSLLHKNVGVSFAFNPFVAGTSILVSWIIISLVLRASPRIMGEAIKRSFHQYWGGILTGIFVVGLAYVFNFSGMAYSLAWKTSDLGIAFIIVSPLFGWIGCALSGSNTSTNALFGAFQVTTARLTGLPVGLPPALNSVGAELAKPVAPQTASAGVSTTKYVRKEGIVIRKNLPWAIGILIYLILIGVLYAFLAPSLFVH”, the protein production result is listed as “failed”.

Consider “MYIRGVGDIIYFLQQLHPLEQALLAGIFTWGMTALGAASVFFTREVSRKVLDSMLGFTAGVMIAASYWSLLAPAIEMSEGRSIPAWLPAVLGFLLGGLFLRGIDKILPHLQFGSATEAAEGLKTSWRRNTLLVLAVTLHNIPEGLAVGVAFGAAASGYMYSLPAAIALTTGIGIQNFPEGLVVSVPLRREGMSCFKSFNYGQASAIVEPIASVIGVAAVMLVRPILPYALAFAAGAMIFVVVEEIIPESQHGGNAPLATIGTMIGFSVMMVLDVAFG”, for which the protein production result is “failed”.

Turning to “MYKGYKIGVAVPAYNEEKLIGETLKGIPPFVDRIYVVDDASKDNTSKVVEEMMRHDKRIVLIRHAKNKGVGGAIVSGWKKGLEEGMDILAVMAGDNQMDPRDLPALLDPIVEGKVDFTKGNRFLLSYDLKMSYWRRFGTFLLTILTKIASGYWHINDPQNGYVAIKADALRKIDLDKLDSGYFFENDLLIKASVANLRVVNVPVKIRYKIGEKSKIKYSKFIARTSWLLLRSFLWRIWVEYVKRRKFLGFLYLLGFTLIVTSFLIFLIYPTRLEIPLIVLLAGAAIFLGSCIKEKNLKQYLK”, the protein production result is reported as “failed”.

As to “MYKIDEVTKQVGLTKRTLRYYEEIGLIHPPERSEGNIRLYTDEDIARIKRIVEAKEVLGITLQEMQHFLSLKERMEQRRNSENPRDREVIQEIKEMLEKQVQTLDEKMEQMQRVKGELEDSLHRAVTFLENTKGE”, the protein production result is on record as “failed”.

For the sequence “MYKILIVEDDPNISSLLQSHIQKYGYEAVVAENFDDIMESFNAVKPHLVLLDVNLPKFDGFYWCRQIRHESTCPIIFISARAGEMEQIMAIESGADDYITKPFHYDVVMAKIKGQLRRIYGDYAPNISERIVEVEGLKLFPERPEIHFGSEQVLLTKKEAILAEMLLSKFPRTASREDLLAALWDDESFVEENTLNVNITRLRKKFNELGIENAIETVRGLGYRFNATWSE”, the protein production entry is reported as “failed”.

On to “MYKLISPHLSGHAMWKEALEEFGSGPIHGSGYFENYLPIDYSEAGFHHYLKERTDAADPSVPPPEGFVHCSYFWIVDDDDVLVGFLALRHELNQHLLEVAGHIGYGVRPSARRKGAATAALKLGVHEAQALGIDKVLLCVAGDNEASRNVIEKCGGVYESTIRGMRRYWIATDS”, for which the protein production entry is given as “failed”.

Turning to “MYLAEALAQRVEAQRRYSELNQLLLDVAKVQEGDQPAENPHEILTELEELTTRINDLVRRINRTNSVTEFSEGMTLADALSVRDALLKKRTLYSDLADQLTSRQDRYSRSEIKYVATMDAREIRKKADLAAKEYRQLDVDIQRLNWQTELQ”, the protein production entry is on record as “failed”.

As for “MYLISELAVKAGLSRTTLLYYEKLGLIRGQRLDNGYRYYNESDLQQLFLIQQLQSAGLSLKECEECLQAKLDRTLLERRLSQLDDEIEKKVRARELLLALLGERPQRELHHSLSKHAPNAYLSWLNTQGYSEKEALRLKWLSKDMNEHDIYMQDFMTVFASLQHWGPGSEQDSLKAISLMSMQNMQHILDIGCETGLSTLLLAENSSAHITAVDNEPIAIEQLEKQRQHSPWKEQISPVLGSMTALPFAAKSFDAIWAEGCVYIMGMENALKQWKPFLADNAILMVSDLVWLTENPKPEAQEFWQSEYPDIQSIPSRIKLFKKLGYEVMEHFSLGIDAWQNYWLPLQNRVQELKLRLTNSQALSDIEKEIAIYERSAAKDFTYQYFVLKLNH”, the protein production result was “failed”.

Regarding “MYLKHFGLGQAPFSLTPNTGFFFGLSPHVEALQVLQTALQTGEGFIKVTGEVGTGKTLICRKLINELPQGFHCAYLPNPYLTPAELRWAVANELGLKYTSEIDQQQLTGLIQQQLLALSTHGHAIVLVLDEAQALPDESLEALRLFTNLETESRKLLQVVLFGQPELDERLKRQAFRQLRQRITFSYNLRPLTWDETDAYIRYRLAVAGHAGQALFSPKITRKIAQASRGIPRLINILAHKALMLSFGEGATQVRMSHLKGAICDTEDASPTRVQKWSTYFAIAFMVFAVAMLALLLSGTNFLQWWGDGA”, the protein production result is reported as “failed”.

Turning to “MYLRPDEVARVLEKVGFTVDVVTQKAYGYRRGENYVYVNREARMGRTALVIHPTLKERSSTLAEPASDIKTCDHYQQFPLYLAGERHEHYGIPHGFSSRVALERYLNGLFGEAS”, the protein production result is “failed”.

Take “MYLRSYMGWRFWALFFCLCSPSSVSAERLASSYLKVTEEAASSRQLIRYCVDPDWLPYEAIREGEHVGISSDYIRYIESHSNFKFSLVPTTSWSETLNFLQTGRCELTPMLNKTATREQFLHFSHVYFHSPNVLVSLKEQPFLQGFENIGSRTLAVPKGYRLAEYIQHYYPKVKIIEVGSEPAGLEAVLDKRADLFVGSMFSVNAYIQQTGFNHLKIAGWGGPEDELRMGVSLGHEALLPILNQVLDDVDELERIRIYQKWNNITVIDETNYLLIYQVIVGTLLVVFLLATRTFFISRYNRRLTDKNEQLEALRLRLEHTNAELEFLSTHDPLTKLYNRHYFNRQFVHEHRSEISSEGAICLVMLDIDFFKEINDTLGHAVGDNILMELSGVLQHCVRETDVVARWGGEEFVILCHQTSIDLVKTLCQRIAAAIKDYRFSGNVQLTCSFGIAKLVNNEPMQSCFERADKALYQAKALGRNQICVDEFNT”: the protein production result was “failed”.

Regarding “MYNPTAIAATNYQILPRRGKHKIFIGMAPGVGKTYRMLEEGHALKQDGVDVAIGLLEAHGREETTLKAEGLELIPRKQVYCRNVLLQEMDTEEILRRSPQLVLIDELAHTNIPGSKQEKRYQDVEKILNAGIDVYSTVNIQHLESLNDLVYRISGVVVRERIPDRIIDDADEIVVVDVTPETLQERLQEGKIYAPEKIDQALQNFFRRSNLIALRELALREIADNIEEESISETKNLHYNIRERVLVCISTYPNSIQLLRRGARIANHMNGQLFVLFVAPAGKFLSKSEALHIETCKRLCQEFTGEFLRIESPNIVTTIVKIATQERITQIVLGETRRSRFQLLFKGSIVQQLMRALPQVDIHIIANN”, the protein production result is recorded as “failed”.

Turning to “MYSLFQEGRKMKNTAFLITKNHYPKDYRLKKSPDSDSAMGVAKRILAEVMIFRRVPETISLCGTGCQKCASPHLPKIISAVNKNEPVTFILPAFPGKSPNPEKVLGHLPDHAERLSLNFLGTLCQRIKNFYTPGIKIILCSDGRVFSDVVGMNESDVTAYQLELDRLIKEMSLADLSTFNLDYFYKDLHFVQMREELMKSYGQSLDFLKQKIRNGAKPSASPDEQEANRMYSGITRFLFEDAMHAGQTKSRTAIQKESRFKAYEVIRRSNAWSALIAERFPKAVRLSIHPQTCGSKKLGIRLIGNESWMTPWHGVAVESNKGYVLLRRSEAEALGAKLICSSDGRHSHYQLMAEVSYELLEHHHHHH”, the protein production result is “not failed”.

Regarding “MYSRLPTTYELIEALQASPQAGPAAESRLATVLWAGFVLALVPMLVAGGALVWWHRVLAQVPPAWLPQVFHVLLAVCGVFYVGAWVIRLLDRRAALQHPLRWLTRRLDTQSEVENALLLRLGRIPALQLRARQRRVVLQARLWDASARTMALVLAIGPAAVILADGVAVMAPGGVPALVAIYGAVLVAGCALALFAQLQCSAPLRRLAHVLGEAAEINEAVNRQRQP”, the protein production entry is given as “failed”.

In the case of “MYTITDIAPTDAEFIALIAALDAWQETLYPAESNHLLDLSQLPPQTVIALAIRSPQGEAVGCGAIVLSEEGFGEMKRVYIDPQHRGQQLGEKLLAALEAKARQRDCHTLRLETGIHQHAAIALYTRNGYQTRCAFAPYQPDPLSVFMEKPLFADLRSAAL”, the protein production entry is reported as “not failed”.

Turning to “MYTKGSVSTRIAKYLFIILIVAGVISSLSLAIMSSNKYDAEAINISGSLRMQSYRLLYEMQEQPESVETNLRRYHISLHSSALLEVQNQFFTPNVLKHSYQNILQRWTNMEKYARQQDVKNYSKQLTDYVADVDYFVFELQRFSEQKWILGVSVLGFAMLLILLMVSYVIWYTNREVVKPLHLMTKASMQVQMRQFNHIPLDTRKQNELGTLARVFTQMSTELGQLYSRLEEAVNEKTQKLRQTNRTLSTLYQSAQLLNTNTINDKILNQVLNYIFISDHLNFVKVEVMGAEHWDITLGKQDANNELQIETLSVDNEELGVLSWQAGLPCPDPRIMQNLAQMLARALYFHKNLRQKEQLLLMEERSIIARELHDSLAQVLSFLQIQLTLLKHNLKKEDEQSKEKSLAIIANFEQALSGGYAQLRELLATFRLTIQEANLQLALKQVIDSLRSQTTMQMNVNCQLPSQSLNPQQLVHVLQIVREATTNAIKHSQGTVIEISARINAEGEYEILVEDDGVGIPNLEEPEGHYGLNIMAERCRQLNAQLHIHRREQGGTQVKITLPHTLY”, the protein production result is listed as “failed”.

Turning to “MYVTKRLSEYKRNPSELTLLPTEGPNSGVLVIQDEESRPTLKCCFVNSFDWELNGLPFPQNTRVIVKRQIGTALYLDPVAFIPVLHQPPSSNLYYVIRGSGKHTGEACVSAKEGDRASCCFCFTYIPEAVPRPLDPFDINQQFEIHQGRSSTKKFFATSVASDGIPPQFLTRKGWSVIFSAPEVEDYGLIDDAKGIVDAKLRYELPDLDNSVVVGKWYVPFLFVKEGDAKDQMYKSMYYSMTLQQRFEEVFFCENVGNNKRFEVVVDVEVETEVVKLEGERIARETQGVNSDGVVWFNASGNEKIGLGSVVLERMKWEEERFGWLNKGYEQRSSIKRTERFEGGGPYWKSYRCYVLVETFELKRTDGSLVLTYEFKHVDKLKSKWD”, the protein production entry is given as “failed”.
